4 molecules from PMC3462190, “A Peptidic Unconjugated GRP78/BiP Ligand Modulates the Unfolded Protein Response and Induces Prostate Cancer Cell Death” (PLoS ONE, 2012) can be followed below.

The test relates to 22Rv.1 xenograft tumor. As to the kind of experiment: 22Rv.1 tumor xenograft study. Type of test: in vivo, athymic nude mice. The settings on record: for tumor growth inhibition in vivo: xenografts of single 22Rv.1 clones stably expressing the peptide. The procedure: All animal experiments were performed according to European and German statutory regulations. For generation of xenograft models 5×10^6 LNCaP cells were resuspended in a solution of 50% Matrigel® (BD Bioscience, Heidelberg, Germany) in PBS or 5×10^6 22Rv.1 cells in 100 µl of PBS were subcutaneously injected into both flanks of 6–8 week-old athymic nude mice. Tumor size was measured with a caliper every week. Tumors derived from the injection of stable clones overexpressing the Bag-1 peptide were analyzed over a period of 9 weeks while tumors from cells transfected with the empty expression vector or expressing the N-terminal, the C-terminal and the ΔN-peptide were analyzed over 5 weeks. Tumor size was assessed measuring three perpendicular diameters according to the formula: V = (1/6) [π] (d1d2d3), where π is a mathematic constant and d1, d2 and d3 represent the three spatial dimensions (width, depth and height). Mice were euthanized by cervical dislocation and the tumors removed for further analysis.
Figure 4 The Bag-1 peptide inhibits prostate cancer cell growth in vivo. A. Stable clones of 22Rv.1 cells show reduced cell viability in vitro. Stable clones were seeded in a 96-well plate and the cell number in each well was estimated by measuring the ratio between the wavelength of excitation and emission 560/590 nm using the CellTiter-Blue™ proliferation assay. The bar charts represent the mean of at least four independent experiments ±SD (*p<0.05). B. Determination of the level of the Bag-1 expressed in the 22Rv.1 clones. Cellular extracts of 22v.1 stable clones were subjected to Western blot analysis. An anti-HA antibody was used to detect the peptide and an anti-β-actin antibody for equal loading control. C-D. The Bag-1 peptide reduces 22Rv.1 prostate tumor cell growth in vivo. Six-week old athymic nude mice were injected subcutaneously in both flanks with 5×10^6 cells of each stable clone. Tumor size was measured once per week using a caliper and expressed as tumor volume in mm^3. Shown are (C) the tumor volumes of clones transfected with empty expression vector and (D) clones expressing the Bag-1 peptide. Each point represents the mean volume and standard deviation of at least 5 to 10 tumors. E. Xenografts of stable clones expressing the Bag-1 peptide show increased apoptosis. Five-micron sections of formalin-fixed, paraffin-embedded tumor tissues were subjected to immunohistochemistry. Nuclei are stained blue-purple with hematoxylin while apoptotic cells detected with the TUNEL assay are stained brown. Representative sections of xenografts obtained from each 22Rv.1 stable clone were acquired with an Axioscop microscope (Zeiss). V: stands for empty vector expressing clone and P: peptide expressing clone.
Figure 5 An N-terminal unfolded fragment of the Bag-1 peptide is sufficient to reduce tumor cell growth. A. Schematic diagram of the Bag-1 peptide and its deletion mutants. The ubiquitin-like domain is represented in blue and the BAG domain in red. The numbers refer to the amino acid positions of the different domains. The amino acid residues are numbered following the numbering for Bag-1L. B. Prediction of the secondary structure of the Bag-1 peptide, showing an N-terminal β-hairpin from the ubiquitin-like domain (blue) and a C-terminal α-helix from the BAG domain (red). C. Normalized circular dichroism spectra of the Bag-1 peptides. 30 µM of the Bag-1 peptide were measured in 20 mM KHPO4 buffer, pH 6.8 (black line). Its α-helical content was estimated to be approximately 25% by deconvolution of the spectra (red line). 12 µM of the N-term peptide (green line) and 11 µM of C-term (blue line) were measured under the same conditions. D. ^1H^15N-HSQC NMR spectrum of ^15N-labeled Bag-1 peptide (202–269) in 20 mm KHPO4 buffer, pH 6.8, at 23°C. […] The Hδ and Hε side chain signals of asparagine and glutamine are connected by thin lines. […]

Entries after “also recorded” stand apart in the source; their conditions may differ. Where no end group is shown, it is not given here.

“C-terminal peptide: 28 C-terminal fragment of the Bag-1 peptide (Bag-1L 241–269) (EKIADQLEELNKELTGIQQGFLPKDLQAE; not fully specified)”: the “tumor growth inhibition in vivo” value was “This effect was not seen”.
Still for that read-out and setting: in the case of “N-terminal peptide: N-terminal 40 residues of the Bag-1 peptide (Bag-1L 202–241) (TPLSALGIQDGCRVMLIGKKNSPQEEVELKKLKHLEKSVE; not fully specified)” it was “reduces tumor growth in vivo; also recorded: growth inhibitory action of the peptides was also confirmed in xenograft models”.
Consider “ΔUbi peptide: Bag-1 peptide lacking the ubiquitin-like domain portion (Bag-1L 220–269) (KKNSPQEEVELKKLKHLEKSVEKIADQLEELNKELTGIQQGFLPKDLQAE; not fully specified)”, for which the “tumor growth inhibition in vivo” value was “This effect was not seen”.

B1: Bag-1 peptide: internal sequence of 68 amino acids of Bag-1 (Bag1-L 202–269), HA-tagged, expressed from pcDNA3 (peptide)
chain: TPLSALGIQDGCRVMLIGKKNSPQEEVELKKLKHLEKSVEKIADQLEELNKELTGIQQGFLPKDLQAE
modifications: also: HA tag, end not given here
On to B1, for which the tumor volume (22Rv.1 cells expressing the peptide (P42, P25 and P29), 9 weeks, empty vector: average 1.2 cm^3 in 4–8 weeks) was 0.4 cm^3. The “Tumor weight, clone P25” value (22Rv.1 clone P25, termination 7–9 weeks, mean and SD of 4–10 tumors, vector clones 1.24–1.73 g) was determined as 0.31 ± 0.14 g. Moreover, the “Tumor weight, clone P29” value (22Rv.1 clone P29, termination 9 weeks, mean and SD of 4–10 tumors, vector clones 1.24–1.73 g) came to 0.42 ± 0.17 g. For the same molecule, the “Tumor weight, clone P42” value (22Rv.1 clone P42, termination 9 weeks, mean and SD of 4–10 tumors, vector clones 1.24–1.73 g) came out at 0.38 ± 0.20 g. Further, the tumor condition entry (22Rv.1 peptide clone 25, mice euthanized earlier than 9 weeks) is listed as “the tumors were necrotic”.
